From patent publication US20030236190A1 (published 2003)
Where two headings read alike, the source gives them in different places. Positions of bridges follow the written chain, without caps; N, C: chain ends. No end group written: not given here.

Experiments:
[1] = target: human IGF-1R on FDCP-2 cells (human, UniProt P08069 31-1367); experiment: cell-based or functional assay
[2] = target: T1, recombinant human IGF-1R (rhIGF-1R) (human, UniProt P08069 31-935); experiment: heterogeneous TRF (DELFIA) competition with b-rhIGF-1 for plate-coated rhIGF-1R
T1 construct: extracellular domain; Coated on plates in the TRF assay and europium-labelled (LANCE) in the TR-FRET assays; also called rhIGE-1R; Eu3+-rhIGF-1R
Procedure: (§1) The plates were incubated for 2 hr at RT.

[3] = target: T1, recombinant human IGF-1R (rhIGF-1R); experiment: column 'nM Ki app Kd' of Table 15 (IGF-1R summary); values match the TRF competition with b-rhIGF-1 on rhIGF-1R of Table 20
Procedure: as §1

[4] = target: T1, recombinant human IGF-1R (rhIGF-1R); experiment: TR-FRET competition with b-20E2 for Eu3+-rhIGF-1R
[5] = target: T2, soluble human insulin receptor-immunoglobulin heavy chain chimera (sIR-Fc) (human, UniProt P06213 28-956, limits assumed); experiment: fluorescence polarization competition with FITC-RP9 for sIR-Fc
T2 construct: extracellular domain; also called sIR-Ec; not shown: immunoglobulin heavy chain constant domains

[6] = target: T1, recombinant human IGF-1R (rhIGF-1R); experiment: ratio of the IC50 at rhIGF-1R (TR-FRET) to the IC50 at sIR-Fc (FP); higher values indicate higher affinity for IR than IGF-1R
[7] = target: T1, recombinant human IGF-1R (rhIGF-1R); experiment: TR-FRET competition with b-20E2 for rhIGF-1R
[8] = target: T3, human insulin receptor (HIR) (human, UniProt P06213 28-1382, limits assumed); experiment: Kd(HIR), insulin competition
[9] = target: T4, Human insulin receptor (HIR), purified from transfected cells after solubilization with Triton X-100 (human, UniProt P06213 28-1382, limits assumed); experiment: competition with 125I-insulin for solubilised HIR, PEG precipitation; Kd calculated from the competition curve
T4 construct: Detergent-solubilised receptor

[10] = target: T4, Human insulin receptor (HIR), purified …; experiment: as above; remark: listed apart in the source
[11] = target: human IGF-1R on FDCP-2 cells (human, UniProt P08069 31-1367); experiment: cell-based or functional assay; remark: listed apart in the source
[12] = target: insulin receptor (IR) on mouse free fat cells (mouse, UniProt P15208 28-1372); experiment: cell-based or functional assay
[13] = target: T3, human insulin receptor (HIR); experiment: cell-based or functional assay
[14] = target: T5, Insulin receptor (IR) prepared according to Bass et al., 1996 (human, UniProt P06213 28-956)
T5 construct: extracellular domain; also called soluble IR (Bass construct); sIR-Fc; not shown: immunoglobulin heavy chain constant domains of the Bass chimera

[15] = target: T5, Insulin receptor (IR) prepared …; experiment: phage ELISA; ratio over background for IR divided by that for IGF-1R
Soluble IGF-1R [16] = target: T6, Soluble IGF-1R (UniProt P08069 31-935, limits assumed)
T6 construct: extracellular domain; Bought reagent; also called sIGF-1R; insulin-like growth factor receptor

Soluble IGF-1R [17] = target: T6, Soluble IGF-1R; experiment: phage ELISA; ratio over background for IGF-1R divided by that for IR

Sequence of insulin receptor (IR) on mouse free fat cells (P15208 28-1372): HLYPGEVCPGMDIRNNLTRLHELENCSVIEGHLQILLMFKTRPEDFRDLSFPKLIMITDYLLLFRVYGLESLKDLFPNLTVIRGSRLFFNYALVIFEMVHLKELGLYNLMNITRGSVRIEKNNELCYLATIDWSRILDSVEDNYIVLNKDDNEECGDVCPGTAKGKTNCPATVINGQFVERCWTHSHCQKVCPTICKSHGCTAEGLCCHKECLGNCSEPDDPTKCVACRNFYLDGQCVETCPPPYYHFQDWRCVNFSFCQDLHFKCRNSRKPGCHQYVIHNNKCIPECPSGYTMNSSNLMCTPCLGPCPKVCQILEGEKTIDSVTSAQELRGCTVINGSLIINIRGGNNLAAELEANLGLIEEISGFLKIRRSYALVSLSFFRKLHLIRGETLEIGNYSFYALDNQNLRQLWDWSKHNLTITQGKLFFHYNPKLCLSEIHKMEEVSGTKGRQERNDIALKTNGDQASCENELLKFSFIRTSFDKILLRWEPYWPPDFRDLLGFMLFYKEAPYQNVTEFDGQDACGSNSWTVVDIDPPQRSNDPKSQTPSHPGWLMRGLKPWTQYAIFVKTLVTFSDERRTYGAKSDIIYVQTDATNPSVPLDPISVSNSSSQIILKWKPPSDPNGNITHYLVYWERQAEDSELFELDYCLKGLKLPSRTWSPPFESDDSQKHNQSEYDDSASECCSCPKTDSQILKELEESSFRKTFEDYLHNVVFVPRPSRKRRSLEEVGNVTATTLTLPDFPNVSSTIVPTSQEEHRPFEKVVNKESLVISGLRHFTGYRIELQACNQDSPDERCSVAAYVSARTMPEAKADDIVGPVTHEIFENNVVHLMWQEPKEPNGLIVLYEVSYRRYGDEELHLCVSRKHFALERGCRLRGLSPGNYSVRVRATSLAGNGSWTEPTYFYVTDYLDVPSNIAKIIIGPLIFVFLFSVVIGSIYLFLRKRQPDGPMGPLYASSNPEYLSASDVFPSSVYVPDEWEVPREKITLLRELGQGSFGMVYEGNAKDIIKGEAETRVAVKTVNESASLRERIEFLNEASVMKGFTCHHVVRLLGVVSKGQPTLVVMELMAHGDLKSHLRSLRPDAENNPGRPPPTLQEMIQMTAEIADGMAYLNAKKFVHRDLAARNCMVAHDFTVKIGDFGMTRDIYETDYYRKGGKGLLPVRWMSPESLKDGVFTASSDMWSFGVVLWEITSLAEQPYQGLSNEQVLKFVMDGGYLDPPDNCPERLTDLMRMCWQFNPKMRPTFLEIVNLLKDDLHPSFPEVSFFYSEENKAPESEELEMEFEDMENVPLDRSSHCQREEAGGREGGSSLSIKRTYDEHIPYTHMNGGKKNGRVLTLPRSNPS

B1: D815-6aa-RP9 (peptide)
peptide: WLDQERAWLWCEISGRGCLSGGSGGSGSLDESFYDWFERQLGKK
notes: Site 2-Site 1 dimer peptide, recombinant; also called D815-RP9 (6 aa linker); D815-6-RP9
[1]
  ED50 Growth: 50 nM
  IC50 Antag.: > 500 nM
  Ki/ED50: 0.8
  Max Action: > 50%
[2]
  IC50: 35.7 nM
[3]
  Ki: 36 nM

## FHENFYDWFVQRVSKK (also called H2C (D117)) [H2C]
[4]
  IC50: 460 nM
[5]
  IC50: 66 nM

## DYKDFYDAIDQLVRGSARAGGTRD (also called 20E2 (D118))
[4]
  IC50: 104 nM
[5]
  IC50: 51 nM
[6]
  Binding Ratio IGF-1R/IR: 1.9
[7]
  IC50: 100 nM

## VMDARDDPFYHKLSELVT [RP16]
[5]
  IC50: 6400 nM
[6]
  Binding Ratio IGF-1R/IR: 0.15
[7]
  IC50: 961 nM

## LDALDRLMRYFEERPSL [S173]
[4]
  IC50: 6290 nM

B2: 463 (other, not shown: large carriers; small tags and cut ends)
chain: NNNNLGIEGRISEFIEGRAQPAMAFHENFYDWFVRQVSGGSFHENFYDWFVRQVSAAAGAPVPYPDPLEPRAA
notes: MBP fusion
[8]
  Kd: 960 nM

## CWARPCGDAANFYDWFVQQAS (also called C1 (D112)) [C1]
[4]
  IC50: 0.88 nM
[6]
  Binding Ratio IGF-1R/IR: 0.19
[7]
  IC50: 10 nM

B3: D815-6aa-G33 (peptide)
peptide: WLDQERAWLWCEISGRGCLSGGSGGSGIISQSCPESFYDWFAGQVSDPWWCW
notes: Site 2-Site 1 dimer peptide, recombinant; also called D815-G33 (6 aa linker); D815-6-G33
[1]
  Max Action: < 10%
[2]
  IC50: 624 nM
[3]
  Ki: 624 nM

## ESFYDWFERQ (Synthetic truncated RP9 monomer peptide) [S400]
[9]
  Kd: 630 nM
[10]
  Kd: 630 nM

## DYKDFYDAIDQLVRGSARAGGTRD
[11]
  IGF-1 agonist (proliferation) assay, FDCP-2 cells; ED50: > 10000 nM

B4: S415 (peptide)
chain: ESFYDWFERQLGK
modifications: not fully specified (residue 13, C-terminus); also: dimer, two chains joined C-terminus to C-terminus through linker 23
[10]
  Kd: 100 nM

## GIISQSCPESFYDWFAGQVSDPWWCW (Recombinant form) [recombinant peptide surrogate G33 (rG33)]
[1]
  ED50 Growth: 500 nM
  Ki/ED50: 2.9
  Max Action: > 50
[2]
  IC50: 1450 nM
[3]
  Ki: 1450 nM

## GGTVWPGYEWLRNA [E8]
[5]
  IC50: 206 nM

## SQAGSAFYAWFDQVLRTV [RP15]
[5]
  IC50: 28 nM
[6]
  Binding Ratio IGF-1R/IR: 25
[7]
  IC50: 706 nM

B5: D815-12aa-RP9 (peptide)
peptide: WLDQERAWLWCEISGRGCLSGGSGGSGGSGGSGSLDESFYDWFERQLGKK
modifications: not fully specified (bridges); cysteine pairing not given here
notes: Site 2-Site 1 dimer peptide, recombinant; also called D815-RP9 (12 aa linker); D815-12-RP9
[1]
  ED50 Growth: 10000 nM
  Ki/ED50: 0.0003
  Max Action: 100
[2]
  IC50: 3.22 nM
[3]
  Ki: 3 nM

## WLDQERAWLWCEISGRGCLS (disulfide 11-18 (inferred)) [D815]
[11]
  IGF-1 agonist (proliferation) assay, FDCP-2 cells; ED50: ~2000 nM

## ESFYDWFERQL (Synthetic truncated RP9 monomer peptide) [S399]
[9]
  Kd: 91 nM
[10]
  Kd: 91 nM

## GSLDESFYDWFERQLG (also called RP9 minus terminal lysines) [S386]
[9]
  Kd: 320 nM

## GIISQSCPESFYDWFAGQVSDPWWCW [G33, listing 1 of 2 here]
[11]
  IGF-1 agonist (proliferation) assay, FDCP-2 cells; ED50: ~10000 nM

## GSLDESFYDWFERQL (Synthetic truncated RP9 monomer peptide) [S395]
[9]
  Kd: 91 nM
[10]
  Kd: 91 nM

B6: 437 (other, not shown: large carriers; small tags and cut ends)
chain: NNNNLGIEGRISEFIEGRAQPAMAFHENFYDWFVRQVSAAAGAPVPYPDPLEPRAA
notes: MBP fusion
[8]
  Kd: 8300 nM

B7: 535 (peptide)
peptide: MADYKDDDDKGSLDESFYDWFERQLGKKGGSGGSGGSGGSGSLDESFYDWFERQLGKKAAAGAPVPYPDPLEPRPG
[12]
  FFC Pot.: 2 nM
[13]
  Kinase Pot.: 1000 nM

B8: 435 (other, not shown: large carriers; small tags and cut ends)
chain: NNNNLGIEGRISEFIEGRAQPAMAFHENFYDWFVRQVSGGSFHENFYDWFVRQVSGGSFHENFYDWFVRQVSAAAGAPVPYPDPLEPRAA
notes: MBP fusion
[8]
  Kd: 2000 nM

## PPWGARFYDAIEQLVFDNL [RP4]
[5]
  IC50: 17 nM
[6]
  Binding Ratio IGF-1R/IR: 476
[7]
  IC50: 8100 nM

## WLDQERAWLWCEISGRGCLS (disulfide 11-18 (inferred), Recombinant form) [recombinant peptide surrogate D815 (rD815)]
[1]
  ED50 Growth: 500 nM
  Max Action: > 50%
[2]
  IC50: 4080 nM
[3]
  Ki: 4080 nM

## GSLDESFYDWFERQ (Synthetic truncated RP9 monomer peptide) [S394]
[9]
  Kd: 81 nM
[10]
  Kd: 81 nM

B9: 436 (other, not shown: large carriers; small tags and cut ends)
chain: NNNNLGIEGRISEFIEGRAQPAMAFHENFYDWFVRQVSGGSGGSGGSFHENFYDWFVRQVSAAAGAPVPYPDPLEPRAA
notes: MBP fusion
[8]
  Kd: 410 nM

## LSCLAYSRHGIWRPSTDLGLGRSVGEGSVSTRWRGYDWFE [40F-4-D1-IGFR]
[14]
  ratio over background, IR: 0.3 ratio over background
[15]
  IR/IGF-1R ratio comparison: 0.1 ratio
Soluble IGF-1R [16]
  ratio over background, IGF-1R: 4.6 ratio over background
Soluble IGF-1R [17]
  IGF-1R/IR ratio comparison: 13.1 ratio

## SAKNFYDWFVKK [A6]
[4]
  IC50: 31000 nM

## WLEQERAWIWCEIQGSGCRA (not fully specified (bridges); cysteine pairing not given here) [D8B12]
[4]
  IC50: 11300 nM

## GSLDESFYDWFERQLG (also called RP9 minus terminal lysines) [RP9]
[1]
  IC50 Antag.: 900 nM
  Ki/ED50: 0.5
  Max Action: < 10%
[4]
  IC50: 39.3 nM
[5]
  IC50: 24 nM
[6]
  Binding Ratio IGF-1R/IR: 1.4
[2]
  IC50: 417 nM
[3]
  Ki: 417 nM
[7]
  IC50: 33 nM

B10: 464 (other, not shown: large carriers; small tags and cut ends)
chain: NNNNLGIEGRISEFIEGRDYKDDDDKFHENFYDWFVRQVSAAGAPVPYPDPLEPRAA
notes: MBP fusion
[8]
  Kd: 39 nM

## GIISQSCPESFYDWFAGQVSDPWWCW [G33, listing 2 of 2 here]
[5]
  IC50: 139 nM
[6]
  Binding Ratio IGF-1R/IR: 1.3
[7]
  IC50: 178 nM
